No end group written: not given here.
Legend:
[1] = biological target: T1, PGSRSRTPSLPTPPT (human); assay: RepliTope peptide microarray, immobilized 15-mer, fluorescent secondary antibody
T1 construct: Synthetic peptide covalently immobilized on glass through a hydrophilic linker (RepliTope microarray)
T1 peptide: PGSRSRTPSLPTPPT
From the text: (§1) Epitope mapping of clones 10H8 and 19G10 was completed using JPT Peptide Technologies' RepliTope™ peptide microarrays. This technology consists in using purified synthetic peptides chemoselectively and covalently immobilized to the glass surface. An optimized hydrophilic linker moiety is inserted between the glass surface and the antigen derived peptide sequence to avoid false negatives caused by sterical hindrance. The peptides used spanned Tau mid region protein sequence of 166 amino acids between amino acid 104 and amino acid 269 (Tau 166). Peptides of 15 amino acids in length that extended downstream either 1 or 2 amino acids at a time were used in this experiment.
(§2) The assay was performed using an automated TECAN HS4X00 microarray processing station. Microarrays were washed, incubated with blocking buffer for 60 min at 30° C., and subsequently with clones […] and 19G10 diluted in blocking buffer for 120 min at 30° C. Microarrays were washed and incubated with secondary antibody diluted in blocking buffer for 45 min at 30° C. and then dried. The quantification was performed using high resolution fluorescence scanner. The resulting images were analyzed and quantified using spot-recognition software GenePix (Molecular Devices). For each spot, the mean signal intensity was extracted and expressed as arbitraty florescence units.

[2] = biological target: T2, PTPPTREPKKVAVVR (human); assay: as above
T2 construct: Synthetic peptide covalently immobilized on glass through a hydrophilic linker (RepliTope microarray)
T2 peptide: PTPPTREPKKVAVVR
From the text: as §1, §2

[3] = biological target: T3, PTREPKKVAVVRTPP (human); assay: as above
T3 construct: Synthetic peptide covalently immobilized on glass through a hydrophilic linker (RepliTope microarray)
T3 peptide: PTREPKKVAVVRTPP
From the text: as §1, §2

[4] = biological target: T4, TREPKKVAVVRTPPK (human, also: covalently immobilized on glass through a hydrophilic linker); assay: as above
T4 construct: Synthetic peptide covalently immobilized on glass through a hydrophilic linker (RepliTope microarray)
T4 peptide: TREPKKVAVVRTPPK
From the text: as §1, §2

[5] = biological target: T5, PTPPTREPKKVAVVR (human); assay: as above
T5 construct: Synthetic peptide covalently immobilized on glass through a hydrophilic linker (RepliTope microarray)
T5 peptide: PTPPTREPKKVAVVR
From the text: as §1, §2

[6] = biological target: T6, TREPKKVAVVRTPPK (human, also: covalently immobilized on glass through a hydrophilic linker); assay: as above
T6 construct: Synthetic peptide covalently immobilized on glass through a hydrophilic linker (RepliTope microarray)
T6 peptide: TREPKKVAVVRTPPK
From the text: as §1, §2

[7] = biological target: T7, EPKKVAVVRTPPKSP (human); assay: as above
T7 construct: Synthetic peptide covalently immobilized on glass through a hydrophilic linker (RepliTope microarray)
T7 peptide: EPKKVAVVRTPPKSP
From the text: as §1, §2

[8] = biological target: T8, TPPTREPKKVAVVRT (human, also: covalently immobilized on glass through a hydrophilic linker); assay: as above
T8 construct: Synthetic peptide covalently immobilized on glass through a hydrophilic linker (RepliTope microarray)
T8 peptide: TPPTREPKKVAVVRT
From the text: as §1, §2

[9] = biological target: T9, KKVAVVRTPPKSPSS (human); assay: as above
T9 construct: Synthetic peptide covalently immobilized on glass through a hydrophilic linker (RepliTope microarray)
T9 peptide: KKVAVVRTPPKSPSS
From the text: as §1, §2

[10] = biological target: T10, … (human); assay: as above
T10 construct: Synthetic peptide covalently immobilized on glass through a hydrophilic linker (RepliTope microarray)
From the text: as §1, §2

[11] = biological target: T11, LPTPPTREPKKVAVV (human); assay: as above
T11 construct: Synthetic peptide covalently immobilized on glass through a hydrophilic linker (RepliTope microarray)
T11 peptide: LPTPPTREPKKVAVV
From the text: as §1, §2

[12] = biological target: T12, SLPTPPTREPKKVAV (human, also: covalently immobilized on glass through a hydrophilic linker); assay: as above
T12 construct: Synthetic peptide covalently immobilized on glass through a hydrophilic linker (RepliTope microarray)
T12 peptide: SLPTPPTREPKKVAV
From the text: as §1, §2

[13] = biological target: T13, SRSRTPSLPTPPTRE (human, also: covalently immobilized on glass through a hydrophilic linker); assay: as above
T13 construct: Synthetic peptide covalently immobilized on glass through a hydrophilic linker (RepliTope microarray)
T13 peptide: SRSRTPSLPTPPTRE
From the text: as §1, §2

[14] = biological target: T14, REPKKVAVVRTPPKS (human); assay: as above
T14 construct: Synthetic peptide covalently immobilized on glass through a hydrophilic linker (RepliTope microarray)
T14 peptide: REPKKVAVVRTPPKS
From the text: as §1, §2

[15] = biological target: T15, … (human); assay: as above; remark: listed apart in the source
T15 construct: Synthetic peptide covalently immobilized on glass through a hydrophilic linker (RepliTope microarray)
From the text: as §1, §2

[16] = biological target: T16, PPTREPKKVAVVRTP (human); assay: as above
T16 construct: Synthetic peptide covalently immobilized on glass through a hydrophilic linker (RepliTope microarray)
T16 peptide: PPTREPKKVAVVRTP
From the text: as §1, §2

[17] = biological target: T17, PPTREPKKVAVVRTP (human); assay: as above
T17 construct: Synthetic peptide covalently immobilized on glass through a hydrophilic linker (RepliTope microarray)
T17 peptide: PPTREPKKVAVVRTP
From the text: as §1, §2

[18] = biological target: T18, EPKKVAVVRTPPKSP (human); assay: as above
T18 construct: Synthetic peptide covalently immobilized on glass through a hydrophilic linker (RepliTope microarray)
T18 peptide: EPKKVAVVRTPPKSP
From the text: as §1, §2

[19] = biological target: T19, SLPTPPTREPKKVAV (human, also: covalently immobilized on glass through a hydrophilic linker); assay: as above
T19 construct: Synthetic peptide covalently immobilized on glass through a hydrophilic linker (RepliTope microarray)
T19 peptide: SLPTPPTREPKKVAV
From the text: as §1, §2

[20] = biological target: h-Tau 441 (human Tau isoform 2-441, Accession No. NP 005901.2) (human, UniProt P10636 2-758); assay: SPR, BIAcore CM3 sensor chip, immobilized h-Tau 441
Method: The binding affinity (Kd) of the 10H8 and 19G10 mAbs was determined by BIAcore CM3 sensor chip (Biacore, Piscataway, N.J.) using immobilized h-Tau 441 as the capture protein.

Sequence of h-Tau 441 (human Tau isoform 2-441, Accession No. NP 005901.2) (P10636 other isoform, or with tags, fused parts or gaps limits assumed): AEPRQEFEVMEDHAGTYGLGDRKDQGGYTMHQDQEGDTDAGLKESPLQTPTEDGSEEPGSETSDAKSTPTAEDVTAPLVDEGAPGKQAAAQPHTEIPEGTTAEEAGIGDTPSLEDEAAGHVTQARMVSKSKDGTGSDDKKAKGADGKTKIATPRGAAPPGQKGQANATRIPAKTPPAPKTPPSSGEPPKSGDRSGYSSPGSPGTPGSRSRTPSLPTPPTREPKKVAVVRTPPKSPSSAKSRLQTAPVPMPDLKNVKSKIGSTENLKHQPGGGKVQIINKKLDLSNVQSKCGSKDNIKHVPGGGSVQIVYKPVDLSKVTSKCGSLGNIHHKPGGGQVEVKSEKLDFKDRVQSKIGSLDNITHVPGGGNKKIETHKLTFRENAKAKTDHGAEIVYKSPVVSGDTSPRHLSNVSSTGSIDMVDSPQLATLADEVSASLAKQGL

- Fluorescent Intensity [1]: 570 arbitrary fluorescence units
- Fluorescent Intensity [2]: 64200 arbitrary fluorescence units
- Fluorescent Intensity [3]: 64300 arbitrary fluorescence units
- Fluorescent Intensity [4]: 58800 arbitrary fluorescence units
- Fluorescent Intensity [5]: 53000 arbitrary fluorescence units
- Fluorescent Intensity [6]: 32400 arbitrary fluorescence units
- Fluorescent Intensity [7]: 2100 arbitrary fluorescence units
- Fluorescent Intensity [8]: 60600 arbitrary fluorescence units
- Fluorescent Intensity [9]: 750 arbitrary fluorescence units
- Fluorescent Intensity [10]: 56700 arbitrary fluorescence units
- Fluorescent Intensity [11]: 59500 arbitrary fluorescence units
- Fluorescent Intensity [12]: 63900 arbitrary fluorescence units
- Fluorescent Intensity [13]: 552 arbitrary fluorescence units
- Fluorescent Intensity [14]: 1400 arbitrary fluorescence units
- Fluorescent Intensity [15]: 58000 arbitrary fluorescence units
- Fluorescent Intensity [16]: 61100 arbitrary fluorescence units
- Fluorescent Intensity [17]: 60200 arbitrary fluorescence units
- Fluorescent Intensity [18]: 890 arbitrary fluorescence units
- Fluorescent Intensity [19]: 64400 arbitrary fluorescence units
- Kd [20]: 17 nM
- koff [20]: 0.000306 s⁻¹
- kon [20]: 18200 M⁻¹ s⁻¹
B1: monoclonal antibody 10H8 (antibody, mouse IgG1, V domains shown)
VH: EVQLQQSGAELVRPGASVKLSCTASGFNIKDEYMNWVKQRPERGLEWIGWIDPENGDAAYASKFQGKATMTADTSSNTAYLQLSSLTSEDTAVYFCTFFYSNYDGYFDVWGAGTTVTVSS
VL: DVLMTQTPLSLPVSLGDQASISCRSSQNIIHSNGSTYLEWYLQKPGQSPKLLIYKVSNRFSGVPDRFSGSGSGTDFTLKISRVEAEDLGIYYCFQGSHVPWTFGGGTKLEIK
notes: also called mAb 10H8; 10H8 mAb
